Results from patent US20130116185A1, “PHOSPHATIDYLINOSITOL 3-KINASES ACTIVITY REGULATOR INCLUDING THE FIFTH ZINC FINGER DOMAIN OF FOG2” (SNU R&DB FOUNDATION, priority 2010, published 2013).

How the values were obtained:
Type in all cases: cell-based
MDA MB 231 cells [1] = test: Cell migration, modified Boyden chamber method; conditions: 18 hr migration
In short: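 MDA MB 231 cells, transfected with FOG2 constructs (24 hr) or treated 2 days with 4 μM peptides/DMSO, were seeded serum-free (1×10^5) in Boyden chambers, serum-free below, 18 hr at 37° C. Giemsa-stained migrated cells counted in six random fields; mean cells per field.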

MDA MB 231 cells [2] = test: Apoptosis by FACS analysis (propidium iodide) in MDA MB 231 cells; conditions: for number of apoptotic cells: transfected with 1 μg FOG2 fragment, 2 days, FIG. 7A
Experimental: PI3K inactivation has been reported to cause cancer cell apoptosis, and FOG2 is known to inhibit the PI3K activity. To test whether PI3K inactivation by overexpressing FOG2 induces apoptosis, MDA MB 231 cells overexpressed FOG2 were analyzed with FACS.
MDA MB 231 cells were incubated with Full-FOG2[1-1151], FOG2[1-412], FOG2[413-789] or FOG2[802-1151]. The cells (5×10^4) were seeded in a 12-well plate and transfected with 1 μg of Full-FOG2[1-1151], FOG2[1-412], FOG2[413-789] or FOG2[802-1151] using Lipofectamine 2000. The cells were incubated at 37° C. for 2 days and subject to FACS analysis.
The cells were incubated with FOG2 fragments and fixed with 70% ethanol for 16 hr. The fixed cells were stained using RNase (5 mg/ml) and propidium iodide ([…]). The amount of DNA in stained cells was analyzed with Cell Quest program of FACS caliber (Becton Dickinson).

Hep3B cells = test: Apoptosis by FACS analysis in Hep3B cells; conditions: synthesized peptides, 48 hr of treatment, FIG. 4B
Experimental: PI3K inactivation is known to cause cancer cell apoptosis, and FOG2 is known to inhibit PI3K activity. To test whether PI3K inactivation by overexpressing FOG2 induces apoptosis, Hep3B cells treated with the peptide synthesized in <Experiment 3> were analyzed with FACS.

MCF 7 = test: Apoptosis by FACS analysis in MCF7 cells; conditions: synthesized peptides, FIG. 7D
Excerpt: FIG. 7D is a graph showing the apoptotic effect by synthesized zinc finger domain peptides of FOG2 in MCF7 cells according to FACS analysis;

PI3K [3] = molecular target: T1, PI3K (Homo sapiens, UniProt P27986); test: PI3K activity in MDA MB 231 cells incubated with zinc finger domain peptides; design: The cell lysates were immunoprecipitated with p85α (sc-1637, Santa Cruz) and Protein G-Sepharose beads; endogenous in cells; conditions: synthesized peptides, FIG. 5
T1 sequence (P27986 whole entry, the tested form may be a part): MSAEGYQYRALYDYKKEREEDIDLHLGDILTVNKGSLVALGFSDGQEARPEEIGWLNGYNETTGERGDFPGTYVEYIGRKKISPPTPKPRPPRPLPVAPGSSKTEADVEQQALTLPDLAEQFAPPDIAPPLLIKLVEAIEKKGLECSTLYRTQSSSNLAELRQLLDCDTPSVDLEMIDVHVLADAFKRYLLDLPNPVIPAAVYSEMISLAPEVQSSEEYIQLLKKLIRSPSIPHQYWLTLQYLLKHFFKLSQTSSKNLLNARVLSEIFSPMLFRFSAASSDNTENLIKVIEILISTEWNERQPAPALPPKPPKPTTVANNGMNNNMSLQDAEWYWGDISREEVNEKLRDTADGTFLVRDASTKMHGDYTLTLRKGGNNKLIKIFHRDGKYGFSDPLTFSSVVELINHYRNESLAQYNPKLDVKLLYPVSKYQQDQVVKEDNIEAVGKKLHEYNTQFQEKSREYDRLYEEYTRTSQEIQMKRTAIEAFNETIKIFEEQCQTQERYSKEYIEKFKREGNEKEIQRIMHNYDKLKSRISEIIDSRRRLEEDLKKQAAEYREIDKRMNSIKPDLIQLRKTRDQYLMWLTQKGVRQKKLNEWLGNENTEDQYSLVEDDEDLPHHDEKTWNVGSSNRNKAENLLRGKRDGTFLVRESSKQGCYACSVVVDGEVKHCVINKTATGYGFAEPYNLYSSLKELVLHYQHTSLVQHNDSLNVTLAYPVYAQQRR
Experimental: (§1) For measurement of PI3K activity, 10 μl of sonicated PIP2 (1 μg/μl, Calbiochem), 10 μl of 100 mM MgCl2 and 1 μl of [-^32P]ATP (500 μCi/ml) were added to the kinase buffer (10 mM Tris-HCl (pH 7.4), 150 mM NaCl, 1 mM Na3VO4, 10 mM ZnCl2) and incubated at 37° C. for 30 min. After incubation, 20 μl of 6 N HCl was added to stop the reaction and PIP2 was extracted by treatment with 200 μl of methanol:chloroform (1:1) solution. The amount of radioactively labeled PIP2 in the extract was measured using a scintillator counter.
For peptide treatment, cells were trypsinized to detach them from a culture dish and their aliquot (2×10^5 cells) was incubated with 4 μM peptides in 100 mm dishes. The control was incubated with Mock (DMSO).

PI3K [4] = molecular target: T1, PI3K; test: IGF-1-induced PI3K activation in Hep3B cells incubated with peptides; design: The cell lysates were immunoprecipitated with p85α (sc-1637, Santa Cruz) and Protein G-Sepharose beads; endogenous in cells; host or cells: Hep3B; conditions: 4 μM peptides, 48 hr, FIG. 2C
Experimental: as §1
In addition, Hep3B liver cancer cells were incubated with 4 μM peptides for 48 hr and the PI3K activity was analyzed.

Akt = Akt phosphorylation by Western blot in transfected Hep3B cells after IGF-1 stimulation; conditions: FIG. 1D
Experimental: Hep3B cells were transfected with FOG2 mutants having modified zinc finger domain to measure the effect on the Akt signaling by FOG2-ZF-5m. The Akt activity was measured by analyzed Akt phosphorylation.
Hep3B cells were transfected with pCK-flag (control), FOG2-wt (wild type) and FOG2 mutants having modified zinc finger domain (FOG2-ZF-5-m and FOG2-ZF-6-m) and stimulated with IGF-1. The expression of Akt (Cell signaling Technology, USA), pAkt (Cell signaling Technology, USA) and GAPDH(Santa cruz, USA) were measured by Western blot analysis.

MDA MB 231 cells [5] = test: Cell proliferation MTT assay; conditions: transfected with 100 ng DNA, 3 days post-transfection, FIG. 6A
In short: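 Cells (2×10^3/well) were treated with 4 μM peptide for 3 days, or transfected with 100 ng FOG2 wild-type or zinc-finger mutant plasmid and assayed 3 days later. MTT (2 mg/ml) was added for 1 h at 37 °C, dissolved in DMSO, and absorbance was read at 590 nm.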

HCT116 cells = test: Apoptosis by FACS analysis in HCT116 cells; conditions: 2 days after transfection, FIG. 4A
Experimental: PI3K inactivation is known to cause cancer cell apoptosis, and FOG2 is known to inhibit PI3K activity. To test whether PI3K inactivation by overexpressing FOG2 induces apoptosis, HCT116 cells transfected with pCK-flag (control), FOG2-wt (wild type) and FOG2 mutants (FOG2-ZF-5-m and FOG2-ZF-6-m) were analyzed with FACS.

PI3K [6] = molecular target: T1, PI3K; test: PI3K activity in Hep3B cells transfected with FOG2 constructs (p85α immunoprecipitation, 32P-ATP/PIP2 kinase assay); design: The cell lysates were immunoprecipitated with p85α (sc-1637, Santa Cruz) and Protein G-Sepharose beads; endogenous in cells; host or cells: Hep3B; conditions: 100 ng/ml IGF-1 30 min, FIG. 1C
Experimental: To investigate the inhibitory effect to PI3K activity by FOG2 zinc finger domain, PI3K activity was analyzed using FOG2 mutants having modified zinc finger domain. Specially, it is known that IGF signaling pathway plays an important role in cancer and the increased IGF-1 level enhances the risk of various cancers in many researches.
Accordingly, the PI3K activity was increased by incubating Hep3B cells with IGF-1 and then measured when the cells were incubated with peptides having mutated FOG2 zinc finger domain.
After Hep3B cells incubation, 100 ng/ml IGF-1 (Insulin like growth factor-1) was added to the cells and incubated for 30 min.
Hep3B cells were transfected with pCK-flag (control), FOG2-wt (wild type) and FOG2 mutants having modified zinc finger domain (FOG2-ZF-5-m and FOG2-ZF-6-m). Two days later, the lysates were obtained using a lysis buffer (20 mM Hepes (pH7.4), 100 mM NaCl, 20 mM KAc, 10 mM MgCl2, 10 mM ZnCl2, 1 mM Na3VO4, 1% NPO4). The cell lysates were immunoprecipitated with p85α (sc-1637, Santa Cruz) and Protein G-Sepharose beads using the same method above. After binding to beads, the lysates were washed 2 times with the lysis buffer and one time with the wash buffer (0.1 M Tris-HCl (pH 7.4), 5 mM LiCl, and 0.1 mM Na3VO4).
as §1

Molecule | reduction of cell migration (MDA MB 231 cells [1]; 4 μM peptide, 2 days of treatment, FIG. 3B) | apoptosis (MDA MB 231 cells [2]; synthesized peptides, FIG. 7C) | apoptosis (Hep3B cells) | apoptosis (MCF 7) | PI3K activity (PI3K [3]) | IGF-1-induced PI3K activation (PI3K [4]) | Akt phosphorylation (Akt) | Akt phosphorylation (Akt; listed as FOG2-ZF-wt) | reduction of cell proliferation (MDA MB 231 cells [5]) | reduction of cell migration (MDA MB 231 cells [1]; transfected 24 hr, FIG. 3A) | number of apoptotic cells (MDA MB 231 cells [2]; listed as FOG2[1-1151]) | number of apoptotic cells (MDA MB 231 cells [2]; listed as Full-FOG2[1-1151]) | apoptosis (HCT116 cells) | PI3K activation by IGF-1 stimulation (PI3K [6])
ZF-5-wt-20: The peptide comprising a portion of the fifth zinc finger domain of FOG2 (20 amino acids) (CFECNITFNNLDNYLVHKKH) | reduce the cell migration | promoted apoptosis | induced apoptosis | promoted apoptosis | decrease PI3K activity | inhibited |  |  |  |  |  |  |  | 
FOG2-wt: The wild type of FOG2; full-length FOG2 cDNA cloned into the pCK-flag vector and overexpressed (protein, left off: small tags and cut ends, The wild type of FOG2; full-length FOG2 cDNA cloned into the pCK-flag vector and overexpressed) MSRRKQSKPRQIKRPLEDAIEDEEEECPSEETDIISKGDFPLEESFSTEFGPENLSCEEVEYFCNKGDDEGIQETAESDGDTQSEKPGQPGVETDDWDGPGELEVFQKDGERKIQSRQQLPVGTTWGPFPGKMDLNNNSLKTKAQVPMVLTAGPKWLLDVTWQGVEDNKNNCIVYSKGGQLWCTTTKAISEGEELIAFVVDFDSRLQAASQMTLTEGMYPARLLDSIQLLPQQAAMASILPTAIVNKDIFPCKSCGIWYRSERNLQAHLMYYCSGRQREAAPVSEENEDSAHQISSLCPFPQCTKSFSNARALEMHLNSHSGVKMEEFLPPGASLKCTVCSYTADSVINFHQHLFSHLTQAAFRCNHCHFGFQTQRELLQHQELHVPSGKLPRESDMEHSPSATEDSLQPATDLLTRSELPQSQKAMQTKDASSDTELDKCEKKTQLFLTNQRPEIQPTTNKQSFSYTKIKSEPSSPRLASSPVQPNIGPSFPVGPFLSQFSFPQDITMVPQASEILAKMSELVHRRLRHGSSSYPPVIYSPLMPKGATCFECNITFNNLDNYLVHKKHYCSSRWQQMAKSPEFPSVSEKMPEALSPNTGQTSINLLNPAAHSADPENPLLQTSCINSSTVLDLIGPNGKGHDKDFSTQTKKLSTSSNNDDKINGKPVDVKNPSVPLVDGESDPNKTTCEACNITFSRHETYMVHKQYYCATRHDPPLKRSASNKVPAMQRTMRTRKRRKMYEMCLPEQEQRPPLVQQRFLDVANLNNPCTSTQEPTEGLGECYHPRCDIFPGIVSKHLETSLTINKCVPVSKCDTTHSSVSCLEMDVPIDLSKKCLSQSERTTTSPKRLLDYHECTVCKISFNKVENYLAHKQNFCPVTAHQRNDLGQLDGKVFPNPESERNSPDVSYERSIIKCEKNGNLKQPSPNGNLFSSHLATLQGLKVFSEAAQLIATKEENRHLFLPQCLYPGAIKKAKGADQLSPYYGIKPSDYISGSLVIHNTDIEQSRNAENESPKGQASSNGCAALKKDSLPLLPKNRGMVIVNGGLKQDERPAANPQQENISQNPQHEDDHKSPSWISENPLAANENVSPGIPSAEEQLSSIAKGVNGSSQAPTSGKYCRLCDIQFNNLSNFITHKKFYCSSHAAEHVK |  |  |  |  |  |  | decreased | inhibited | about 40% | approximately 80% | reduces the apoptosis | increased | increased apoptosis | inhibited
